# Data taken from publication PMC5241119, “Structural snapshots of Xer recombination reveal activation by synaptic complex remodeling and DNA bending”.
# Legend:
# [1] = target: Helicobacter pylori XerH recombinase, full-length wild type (Helicobacter pylori) (UniProt O25386); assay: crystal structure; full-length wild-type XerH co-crystallised with a 30 bp difH DNA duplex (pre-cleavage synaptic complex: four XerH, two difH); protein:DNA 1.2:1; well 0.2 M NaCl, 20-25% PEG 3350; 6°C
# [2] = target: Helicobacter pylori XerH recombinase, full-length wild type (Helicobacter pylori) (UniProt O25386); assay: crystal structure; XerH co-crystallised with nicked palindromic 'suicide' difHLP DNA (post-cleavage synaptic complex; two XerH and one DNA in the asymmetric unit, tetramer by crystallographic two-fold); well 0.1 M HEPES pH 7-8, 0.2 M MgCl2, 25-35% PEG 400; 6°C
# XerH [3] = target: T1, XerH (Helicobacter pylori strain 26995 (as …, UniProt O25386 1-362)); assay: analytical SEC; EMSA: 25 mM HEPES pH 7.5, 100 mM NaCl, 10 mM MgCl2, 5% glycerol, 1 mM DTT, 1 mM EDTA, 1 h at 30 C, 20 nM DNA, 0-360 nM XerH; SEC complexes prepared as for crystallization (dialysed to 25 mM Na acetate pH 5.5, 200 mM NaCl, 5% glycerol, 1 mM DTT); details: protein: recombinant, tags: His6-SUMO N-terminal, removed with SenP2, blunt
# T1 sequence: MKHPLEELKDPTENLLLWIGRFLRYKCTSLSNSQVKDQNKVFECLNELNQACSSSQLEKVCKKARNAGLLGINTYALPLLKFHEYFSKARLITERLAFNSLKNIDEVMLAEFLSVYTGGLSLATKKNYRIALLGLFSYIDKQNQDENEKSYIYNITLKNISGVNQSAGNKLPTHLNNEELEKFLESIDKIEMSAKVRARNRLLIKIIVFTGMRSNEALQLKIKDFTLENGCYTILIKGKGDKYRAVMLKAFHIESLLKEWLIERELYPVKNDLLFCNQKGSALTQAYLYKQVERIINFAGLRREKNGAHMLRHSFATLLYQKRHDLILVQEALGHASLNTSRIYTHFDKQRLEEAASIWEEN
# XerH [4] = target: T1, XerH; assay: analytical SEC; no shift in retention; EMSA: 25 mM HEPES pH 7.5, 100 mM NaCl, 10 mM MgCl2, 5% glycerol, 1 mM DTT, 1 mM EDTA, 1 h at 30 C, 20 nM DNA, 0-360 nM XerH; SEC complexes prepared as for crystallization (dialysed to 25 mM Na acetate pH 5.5, 200 mM NaCl, 5% glycerol, 1 mM DTT); details: protein: recombinant; tags: His6-SUMO N-terminal, removed with SenP2; blunt, self-complementary, 2 copies of one strand
# XerH [5] = target: T1, XerH; assay: X-ray crystallography; 2.1 A; pre-cleavage, pH 5.5, no metal; EMSA: 25 mM HEPES pH 7.5, 100 mM NaCl, 10 mM MgCl2, 5% glycerol, 1 mM DTT, 1 mM EDTA, 1 h at 30 C, 20 nM DNA, 0-360 nM XerH; SEC complexes prepared as for crystallization (dialysed to 25 mM Na acetate pH 5.5, 200 mM NaCl, 5% glycerol, 1 mM DTT); details: protein: recombinant; tags: His6-SUMO N-terminal, removed with SenP2; blunt ends, terminal G:A mismatch at strand 1 position 1 as printed; two duplexes per complex
# XerH K290S = XerH K290S (Helicobacter pylori strain 26995 (as …, UniProt O25386 1-362, K290S)); assay: EMSA; K290S does not affect difH binding; EMSA: 25 mM HEPES pH 7.5, 100 mM NaCl, 10 mM MgCl2, 5% glycerol, 1 mM DTT, 1 mM EDTA, 1 h at 30 C, 20 nM DNA, 0-360 nM XerH; SEC complexes prepared as for crystallization (dialysed to 25 mM Na acetate pH 5.5, 200 mM NaCl, 5% glycerol, 1 mM DTT); details: protein: recombinant; tags: His6-SUMO N-terminal, removed with SenP2; label: 5'-32P; blunt
# XerH [6] = target: T1, XerH; assay: EMSA; 10 mM Mg2+; all complex species summed; EMSA: 25 mM HEPES pH 7.5, 100 mM NaCl, 10 mM MgCl2, 5% glycerol, 1 mM DTT, 1 mM EDTA, 1 h at 30 C, 20 nM DNA, 0-360 nM XerH; SEC complexes prepared as for crystallization (dialysed to 25 mM Na acetate pH 5.5, 200 mM NaCl, 5% glycerol, 1 mM DTT); details: protein: recombinant; tags: His6-SUMO N-terminal, removed with SenP2; label: 5'-32P; blunt
molecule,measurement,setting,value
"Helicobacter pylori XerH recombinase, full-length wild type (from UniProt O25386 1-362) (enzyme)",stoichiometry N,[1],4
same,stoichiometry N,[2],4
difH 30 bp (SEC) (dsDNA) DNA 1: TAGTTATGAAAACTGCACTTTTCAAACTTT DNA 2: AAAGTTTGAAAAGTGCAGTTTTCATAACTA,binding result,XerH [3],binds
"difHRP (right-arm palindrome, 30 bp) (dsDNA) DNA 1: AAAGTTTGAAAAGTGCACTTTTCAAACTTT DNA 2: AAAGTTTGAAAAGTGCACTTTTCAAACTTT",binding result,XerH [4],no binding
"difHLP (left-arm palindrome, 30 bp) (dsDNA) DNA 1: TAGTTATGAAAACTGCAGTTTTCATAACTA DNA 2: TAGTTATGAAAACTGCAGTTTTCATAACTA",binding result,"XerH [3]; self-complementary, 2 copies of one strand",binds
difH 30 bp (pre-cleavage crystal) (dsDNA) DNA 1: GAGTTATGAAAACTGCACTTTTCAAACTTT DNA 2: AAAGTTTGAAAAGTGCAGTTTTCATAACTA,binding result,XerH [5],binds
difH 50 bp (dsDNA) DNA 1: TAAATTCATTTAGTTATGAAAACTGCACTTTTCAAACTTTTAAATCAAAC DNA 2: GTTTGATTTAAAAGTTTGAAAAGTGCAGTTTTCATAACTAAATGAATTTA,binding result,XerH K290S,binds
same,Kd,XerH [6],150 nM
"difHL 50 bp (left arm, right arm replaced by random) (dsDNA) DNA 1: TAAATTCATTTAGTTATGAAAACTGCACTTAAATCAAACCATTTAAATAA DNA 2: TTATTTAAATGGTTTGATTTAAGTGCAGTTTTCATAACTAAATGAATTTA",Kd,XerH [6],180 nM
"difHR 50 bp (right arm, left arm replaced by random) (dsDNA) DNA 1: CATATTTTTCCTTTTAAATTCACTGCACTTTTCAAACTTTTAAATCAAAC DNA 2: GTTTGATTTAAAAGTTTGAAAAGTGCAGTGAATTTAAAAGGAAAAATATG",Kd,XerH [6],230 nM
